According to EP4687981A2 (dated 2026):

Target: T1, human CDH11 on primary human fibroblast-like synoviocytes (FLS) (human, UniProt P55287 54-796)
T1 construct: whole, on cells; also called human FLS; human synoviocytes
T1 sequence (looked up): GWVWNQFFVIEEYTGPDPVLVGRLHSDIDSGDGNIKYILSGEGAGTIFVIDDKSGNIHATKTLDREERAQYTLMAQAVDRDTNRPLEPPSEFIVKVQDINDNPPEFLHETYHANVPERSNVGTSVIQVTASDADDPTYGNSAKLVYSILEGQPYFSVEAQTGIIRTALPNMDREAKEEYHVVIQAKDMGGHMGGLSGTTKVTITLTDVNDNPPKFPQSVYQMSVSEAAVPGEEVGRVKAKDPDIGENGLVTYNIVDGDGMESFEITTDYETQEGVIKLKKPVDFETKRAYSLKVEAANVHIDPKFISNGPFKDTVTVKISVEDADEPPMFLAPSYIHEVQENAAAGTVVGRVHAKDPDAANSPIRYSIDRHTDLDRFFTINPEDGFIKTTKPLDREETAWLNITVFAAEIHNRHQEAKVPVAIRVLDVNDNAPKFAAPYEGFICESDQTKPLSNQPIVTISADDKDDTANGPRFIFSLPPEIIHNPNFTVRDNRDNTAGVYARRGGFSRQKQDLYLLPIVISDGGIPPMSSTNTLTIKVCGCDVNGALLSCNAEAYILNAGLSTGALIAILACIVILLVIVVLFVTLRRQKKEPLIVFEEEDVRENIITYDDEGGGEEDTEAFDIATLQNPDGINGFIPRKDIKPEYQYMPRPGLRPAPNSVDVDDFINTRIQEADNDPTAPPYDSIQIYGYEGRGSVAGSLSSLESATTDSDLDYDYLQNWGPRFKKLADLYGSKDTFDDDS
Assay: flow cytometry, hybridoma supernatant on primary human FLS

- binding result: binds
B1: anti-CDH11 antibody 10E1 (antibody, V domains shown)
VH: QVQLQQSGPGLVKPSQTLSLTCAISGDSVSSNSAAWNWIRQSPSRGLEWLGRTYYRSKWYNDYAVSVKSRITINPDTSKNQFSLQLNSMTPEDTAVYYCARATMVRGAFDYWGQGTLVTVSS
VL: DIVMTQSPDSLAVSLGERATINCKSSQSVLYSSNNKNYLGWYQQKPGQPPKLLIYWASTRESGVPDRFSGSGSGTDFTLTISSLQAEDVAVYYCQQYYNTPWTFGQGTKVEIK
notes: Monoclonal from a VelocImmune mouse hybridoma; It was detected with anti-mouse IgG Fc, so the constant regions are mouse; the isotype cannot be read in this copy; also called clone 10E1
